Measurements: IntAct's records for PubMed 11980910

B1: Dual specificity mitogen-activated protein kinase kinase 3 (Homo sapiens), P46734 (parent)
chain: MESPASSQPASMPQSKGKSKRKKDLRISCMSKPPAPNPTPPRNLDSRTFITIGDRNFEVEADDLVTISELGRGAYGVVEKVRHAQSGTIMAVKRIRATVNSQEQKRLLMDLDINMRTVDCFYTVTFYGALFREGDVWICMELMDTSLDKFYRKVLDKNMTIPEDILGEIAVSIVRALEHLHSKLSVIHRDVKPSNVLINKEGHVKMCDFGISGYLVDSVAKTMDAGCKPYMAPERINPELNQKGYNVKSDVWSLGITMIEMAILRFPYESWGTPFQQLKQVVEEPSPQLPADRFSPEFVDFTAQCLRKNPAERMSYLELMEHPFFTLHKTKKTDIAAFVKEILGEDS

Variants of: B1
Conditions: with dyr1b_human DYRK1B

Variant | effect of a mutation on the interaction
T222E | increasing interaction
S218E | increasing interaction
